# Values of other authors in PMC6953883, “Alterations of aqueous humor Aβ levels in Aβ-infused and transgenic mouse models of Alzheimer disease” (PLoS ONE, 2020).
# Conditions: previous studies
substance,measurement,value
Aβ: amyloid-β peptide of cited efflux and retention studies; Shibata et al. used Aβ(1-40),half-time of Aβ efflux from CSF to blood,34.63 min
